Among the data in patent publication US20100144025A1 are -log Kd values, retold here.

Assay [1] deals with HLA-A24 molecule (the product of HLA-A*2402 gene) (human).
The target in assay [2] is HLA-A2 molecule (the product of HLA-A*0201 gene) (human).
The target in assay [3] is HLA-A2 molecule (the product of HLA-A*0206 gene) (human).

Turning to WYAQIQPHW (modifications not checked) [SEQ ID NO 1], the -log Kd in assay [1] was 8.64 -log Kd. In the case of IVLEHGSCV (modifications not checked) [SEQ ID NO 27], the -log Kd in assay [2] is 5.74 -log Kd; in assay [3] it was 6.02 -log Kd. On to ILIRTGLLV (modifications not checked) [SEQ ID NO 33], for which the -log Kd in assay [2] is 6.53 -log Kd. As for HVLGRLITV (modifications not checked) [SEQ ID NO 45], in assay [3], the -log Kd was 6.25 -log Kd.

HWPKSHTLW (modifications not checked) [SEQ ID NO 7]: in assay [1], the -log Kd is 8.66 -log Kd. In the case of YMPSVIEKM (modifications not checked) [SEQ ID NO 15], the -log Kd in assay [2] is 6.58 -log Kd; in assay [1], 7.17 -log Kd. Turning to AYNHALSEL (modifications not checked) [SEQ ID NO 23], the -log Kd in assay [1] is 7.68 -log Kd. In the case of PLNEAIMAV (modifications not checked) [SEQ ID NO 29], the -log Kd in assay [2] was 6.49 -log Kd.

In the case of FLIDGPETA (modifications not checked) [SEQ ID NO 35], the -log Kd in assay [2] was 6.05 -log Kd.

On to IQKETLVTF (modifications not checked) [SEQ ID NO 18], for which, in assay [1], the -log Kd is 7.24 -log Kd. Turning to TLYAVATTF (modifications not checked) [SEQ ID NO 11], the -log Kd in assay [1] is 7.58 -log Kd. As for LVISGLFPV (modifications not checked) [SEQ ID NO 41], the -log Kd in assay [3] is 6.61 -log Kd.

On to AWLVHRQWF (modifications not checked) [SEQ ID NO 10], for which the -log Kd in assay [1] was 8.39 -log Kd. On to SLRPQPTEL (modifications not checked) [SEQ ID NO 34], for which, in assay [2], the -log Kd was 5.05 -log Kd.

With ELPETLETL (modifications not checked) [SEQ ID NO 9], the -log Kd in assay [2] is 6.32 -log Kd; in assay [1], 7.01 -log Kd. Consider ALVAFLRFL (modifications not checked) [SEQ ID NO 21], for which the -log Kd in assay [1] was 5.68 -log Kd. FQPESPSKL (modifications not checked) [SEQ ID NO 36]: the -log Kd in assay [2] was 6.31 -log Kd. Take SVIEKMEAL (modifications not checked) [SEQ ID NO 48]: the -log Kd in assay [3] is 6.37 -log Kd. Same read-out and setting: with RTLRVLNLV (modifications not checked) [SEQ ID NO 49] the figure was 5.97 -log Kd. On to KLMKITAEW (modifications not checked) [SEQ ID NO 16], for which the -log Kd in assay [1] was 7.21 -log Kd. Same read-out and setting: the result for AFSGVSWTM (modifications not checked) [SEQ ID NO 2] reads 8.19 -log Kd; that for PFPQSNAPI (modifications not checked) [SEQ ID NO 5], 8.22 -log Kd.

For the molecule RLITVNPIV (modifications not checked) [SEQ ID NO 31], the -log Kd in assay [2] is 5.64 -log Kd. For ALHQVFGAI (modifications not checked) [SEQ ID NO 19], in assay [1], the -log Kd was 6.05 -log Kd. Regarding LALLAAFKV (modifications not checked) [SEQ ID NO 43], the -log Kd in assay [3] was 6.47 -log Kd. Turning to NLVRLQSGV (modifications not checked) [SEQ ID NO 30], the -log Kd in assay [2] is 4.7 -log Kd. On the same count and under the same terms, the result for ALHQVFGAI (modifications not checked) [SEQ ID NO 38] reads 6.77 -log Kd.

Turning to DWIPLALTI (modifications not checked) [SEQ ID NO 25], the -log Kd in assay [1] is 8 -log Kd. For ALSELPETL (modifications not checked) [SEQ ID NO 12], the -log Kd is 6.05 -log Kd in assay [2] and 5.5 -log Kd in assay [1]. For the molecule YVVIAILTV (modifications not checked) [SEQ ID NO 47], in assay [3], the -log Kd is 5.86 -log Kd. As for PMSTYGWNL (modifications not checked) [SEQ ID NO 22], in assay [1], the -log Kd is 7.62 -log Kd. For the molecule GFLNEDHWF (modifications not checked) [SEQ ID NO 20], the -log Kd in assay [1] is 6.76 -log Kd. As for QILEENVEV (modifications not checked) [SEQ ID NO 50], the -log Kd in assay [3] is 5.61 -log Kd. As for GLNPTAIFL (modifications not checked) [SEQ ID NO 8], in assay [1], the -log Kd was 6.39 -log Kd.
